B1: DNA mismatch repair protein Mlh1 (Homo sapiens), P40692 (parent)
chain: MSFVAGVIRRLDETVVNRIAAGEVIQRPANAIKEMIENCLDAKSTSIQVIVKEGGLKLIQIQDNGTGIRKEDLDIVCERFTTSKLQSFEDLASISTYGFRGEALASISHVAHVTITTKTADGKCAYRASYSDGKLKAPPKPCAGNQGTQITVEDLFYNIATRRKALKNPSEEYGKILEVVGRYSVHNAGISFSVKKQGETVADVRTLPNASTVDNIRSIFGNAVSRELIEIGCEDKTLAFKMNGYISNANYSVKKCIFLLFINHRLVESTSLRKAIETVYAAYLPKNTHPFLYLSLEISPQNVDVNVHPTKHEVHFLHEESILERVQQHIESKLLGSNSSRMYFTQTLLPGLAGPSGEMVKSTTSLTSSSTSGSSDKVYAHQMVRTDSREQKLDAFLQPLSKPLSSQPQAIVTEDKTDISSGRARQQDEEMLELPAPAEVAAKNQSLEGDTTKGTSEMSEKRGPTSSNPRKRHREDSDVEMVEDDSRKEMTAACTPRRRIINLTSVLSLQEEINEQGHEVLREMLHNHSFVGCVNPQWALAQHQTKLYLLNTTKLSEELFYQILIYDFANFGVLRLSEPAPLFDLAMLALDSPESGWTEEDGPKEGLAEYIVEFLKKKAEMLADYFSLEIDEEGNLIGLPLLIDNYVPPLEGLPIFILRLATEVNWDEEKECFESLSKECAMFYSIRKQYISEESTLSGQQSEVPGSIPNSWKWTVEHIVYKALRSHILPPKHFTEDGNILQLANLPDLYKVFERC
partner: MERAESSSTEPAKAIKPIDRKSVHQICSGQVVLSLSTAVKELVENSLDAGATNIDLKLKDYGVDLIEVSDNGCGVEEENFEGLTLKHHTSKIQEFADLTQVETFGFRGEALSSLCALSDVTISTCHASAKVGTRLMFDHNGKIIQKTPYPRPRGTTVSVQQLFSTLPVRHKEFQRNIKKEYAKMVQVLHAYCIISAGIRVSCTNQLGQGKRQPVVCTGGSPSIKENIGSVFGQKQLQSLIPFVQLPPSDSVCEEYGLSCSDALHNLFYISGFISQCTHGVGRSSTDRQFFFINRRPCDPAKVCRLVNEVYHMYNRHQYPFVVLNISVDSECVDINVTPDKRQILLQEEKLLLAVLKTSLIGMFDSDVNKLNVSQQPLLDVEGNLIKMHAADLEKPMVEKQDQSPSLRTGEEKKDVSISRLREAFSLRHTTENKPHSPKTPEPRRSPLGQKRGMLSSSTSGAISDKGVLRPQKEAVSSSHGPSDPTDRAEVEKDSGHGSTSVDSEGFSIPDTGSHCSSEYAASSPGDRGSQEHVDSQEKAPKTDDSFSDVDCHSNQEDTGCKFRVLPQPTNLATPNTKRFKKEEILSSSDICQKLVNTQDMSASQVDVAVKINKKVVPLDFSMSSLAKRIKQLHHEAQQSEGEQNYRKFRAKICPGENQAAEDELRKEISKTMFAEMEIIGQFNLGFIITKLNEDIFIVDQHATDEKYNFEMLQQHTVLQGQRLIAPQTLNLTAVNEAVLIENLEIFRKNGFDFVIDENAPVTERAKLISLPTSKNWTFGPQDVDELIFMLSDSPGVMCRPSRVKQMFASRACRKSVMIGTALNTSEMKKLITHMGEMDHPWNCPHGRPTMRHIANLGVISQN
B2: Mothers against decapentaplegic homolog 4 (Homo sapiens), Q13485 (parent)
chain: MDNMSITNTPTSNDACLSIVHSLMCHRQGGESETFAKRAIESLVKKLKEKKDELDSLITAITTNGAHPSKCVTIQRTLDGRLQVAGRKGFPHVIYARLWRWPDLHKNELKHVKYCQYAFDLKCDSVCVNPYHYERVVSPGIDLSGLTLQSNAPSSMMVKDEYVHDFEGQPSLSTEGHSIQTIQHPPSNRASTETYSTPALLAPSESNATSTANFPNIPVASTSQPASILGGSHSEGLLQIASGPQPGQQQNGFTGQPATYHHNSTTTWTGSRTAPYTPNLPHHQNGHLQHHPPMPPHPGHYWPVHNELAFQPPISNHPAPEYWCSIAYFEMDVQVGETFKVPSSCPIVTVDGYVDPSGGDRFCLGQLSNVHRTEAIERARLHIGKGVQLECKGEGDVWVRCLSDHAVFVQSYYLDREAGRAPGDAVHKIYPSAYIKVFDLRQCHRQMQQQAATAQAAAAAQAAAVAGNIPGPGSVGGIAPAISLSAAAGIGVDDLRRLCILRMSFVKGWGPDYPRQSIKETPCWIEIHLHRALQLLDEVLHTMPIADPQPLD
partner: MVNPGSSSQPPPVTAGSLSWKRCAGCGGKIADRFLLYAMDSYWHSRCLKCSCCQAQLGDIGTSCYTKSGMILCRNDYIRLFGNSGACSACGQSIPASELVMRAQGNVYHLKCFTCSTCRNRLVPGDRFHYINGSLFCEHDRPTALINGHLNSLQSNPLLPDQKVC
B3: ADP-ribosylation factor-like protein 2-binding protein (Homo sapiens), Q9Y2Y0 (parent)
chain: MDALEGESFALSFSSASDAEFDAVVGYLEDIIMDDEFQLLQRNFMDKYYLEFEDTEENKLIYTPIFNEYISLVEKYIEEQLLQRIPEFNMAAFTTTLQHHKDEVAGDIFDMLLTFTDFLAFKEMFLDYRAEKEGRGLDLSSGLVVTSLCKSSSLPASQNNLRH
B4: Barrier-to-autointegration factor (Homo sapiens), O75531 (parent)
chain: MTTSQKHRDFVAEPMGEKPVGSLAGIGEVLGKKLEERGFDKAYVVLGQFLVLKKDEDLFREWLKDTCGANAKQSRDCFGCLREWCDAFL
partner: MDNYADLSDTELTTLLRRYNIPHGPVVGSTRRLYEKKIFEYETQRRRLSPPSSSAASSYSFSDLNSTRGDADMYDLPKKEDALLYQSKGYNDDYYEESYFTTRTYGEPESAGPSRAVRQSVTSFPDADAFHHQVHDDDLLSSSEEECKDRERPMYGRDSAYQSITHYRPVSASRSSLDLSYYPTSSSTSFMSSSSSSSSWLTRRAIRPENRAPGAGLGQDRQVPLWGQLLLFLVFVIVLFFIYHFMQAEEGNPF
B5: Mothers against decapentaplegic homolog 4 (Homo sapiens), Q13485 (parent)
chain: B2 chain
partner: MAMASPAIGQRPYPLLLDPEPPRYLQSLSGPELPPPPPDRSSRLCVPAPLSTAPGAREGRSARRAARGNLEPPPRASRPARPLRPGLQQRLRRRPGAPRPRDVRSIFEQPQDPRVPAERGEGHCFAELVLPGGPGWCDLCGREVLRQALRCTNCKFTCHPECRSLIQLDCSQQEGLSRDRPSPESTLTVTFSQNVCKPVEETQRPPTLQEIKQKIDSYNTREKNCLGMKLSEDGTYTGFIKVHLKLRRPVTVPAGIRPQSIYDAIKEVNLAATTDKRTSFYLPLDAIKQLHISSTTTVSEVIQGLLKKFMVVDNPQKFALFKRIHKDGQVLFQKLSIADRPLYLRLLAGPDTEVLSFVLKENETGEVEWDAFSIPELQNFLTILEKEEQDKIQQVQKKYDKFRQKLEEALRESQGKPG
B6: Emerin (Homo sapiens), P50402 (parent)
chain: B4 partner
partner: B4 chain
B7: Mothers against decapentaplegic homolog 4 (Homo sapiens), Q13485 (parent)
chain: B2 chain

Variants of: B1
Details: with pms2_human PMS2, P54278

effect of a mutation on the interaction | Variant
disrupting interaction strength | I107R

Variants of: B2
Details: with lmo4_human LMO4, P61968

effect of a mutation on the interaction | Variant
with no effect | Y353S
with no effect | N13S
with no effect | R361C

Variants of: B3
Details: with arl2_human ARL2, P36404
Chain of arl2_human ARL2, P36404 (P36404 whole entry): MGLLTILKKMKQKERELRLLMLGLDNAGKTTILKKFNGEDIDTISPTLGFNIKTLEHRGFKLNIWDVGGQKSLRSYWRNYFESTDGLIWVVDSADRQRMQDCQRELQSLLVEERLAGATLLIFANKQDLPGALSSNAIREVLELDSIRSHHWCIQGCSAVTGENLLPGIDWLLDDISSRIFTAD

effect of a mutation on the interaction | Variant
disrupting interaction strength | MDALEGESFALSFSSASDAEFDAVVGYLEDIIMDDEFQLLQRNFRDKYYLEFEDTEENKLIYTPIFNEYISLVEKYIEEQLLQRIPEFNMAAFTTTLQHHKDEVAGDIFDMLLTFTDFLAFKEMFLDYRAEKEGRGLDLSSGLVVTSLCKSSSLPASQNNLRH [M45R]

Variants of: B4
Details: with emd_human EMD

effect of a mutation on the interaction | Variant
with no effect | MTTSQKHRDFVTEPMGEKPVGSLAGIGEVLGKKLEERGFDKAYVVLGQFLVLKKDEDLFREWLKDTCGANAKQSRDCFGCLREWCDAFL [A12T]

Variants of: B5
Details: with rasf5_human RASSF5, Q8WWW0

effect of a mutation on the interaction | Variant
with no effect | N13S
with no effect | R361C
with no effect | Y353S

Variants of: B6
Details: with baf_human BANF1, O75531

effect of a mutation on the interaction | Variant
with no effect | MDNYADLSDTELTTLLRRYNIPHGPVVGSTRRLYEKKIFEYETQRRRLSPPSSSAASSYSFSDLNSTRGDAVMYDLPKKEDALLYQSKGYNDDYYEESYFTTRTYGEPESAGPSRAVRQSVTSFPDADAFHHQVHDDDLLSSSEEECKDRERPMYGRDSAYQSITHYRPVSASRSSLDLSYYPTSSSTSFMSSSSSSSSWLTRRAIRPENRAPGAGLGQDRQVPLWGQLLLFLVFVIVLFFIYHFMQAEEGNPF [D72V]
with no effect | MDNYADLSDTELTTLLRRYNIPHGPVVGSTRRLYEKKIFEYETQRRRLSPPSSSAASSYSFSDLNSTRGDADMYDLPKKEDALLYQSKGYNDDYYEESYFTTRTYGEPESAGPSRAVRQSVTSFPDADAFHHQVHDDDLLSSSEEECKDRERPMYGRDSAYQSITHYRPVSASRSSLDLSYYTTSSSTSFMSSSSSSSSWLTRRAIRPENRAPGAGLGQDRQVPLWGQLLLFLVFVIVLFFIYHFMQAEEGNPF [P183T]
with no effect | MDNYADLSDTELTTLLRRYNIPHGPVVGSTRRLYEKKIFEYETQRRRLSPPSSFAASSYSFSDLNSTRGDADMYDLPKKEDALLYQSKGYNDDYYEESYFTTRTYGEPESAGPSRAVRQSVTSFPDADAFHHQVHDDDLLSSSEEECKDRERPMYGRDSAYQSITHYRPVSASRSSLDLSYYPTSSSTSFMSSSSSSSSWLTRRAIRPENRAPGAGLGQDRQVPLWGQLLLFLVFVIVLFFIYHFMQAEEGNPF [S54F]

Variants of: B7
Details: with smad3_human SMAD3, P84022
Chain of smad3_human SMAD3, P84022 (P84022 whole entry, looked up): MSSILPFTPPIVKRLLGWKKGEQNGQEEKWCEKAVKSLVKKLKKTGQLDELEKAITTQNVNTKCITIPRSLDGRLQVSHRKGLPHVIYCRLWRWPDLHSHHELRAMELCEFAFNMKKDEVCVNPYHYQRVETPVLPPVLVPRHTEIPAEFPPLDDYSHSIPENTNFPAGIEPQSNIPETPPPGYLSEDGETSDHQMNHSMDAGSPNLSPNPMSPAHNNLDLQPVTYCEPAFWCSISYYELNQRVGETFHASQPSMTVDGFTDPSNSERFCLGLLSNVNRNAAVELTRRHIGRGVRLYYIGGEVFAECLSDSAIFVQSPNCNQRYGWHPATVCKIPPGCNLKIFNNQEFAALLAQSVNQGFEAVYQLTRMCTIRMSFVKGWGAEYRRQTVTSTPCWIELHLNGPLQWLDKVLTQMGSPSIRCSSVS

effect of a mutation on the interaction | Variant
disrupting interaction strength | Y353S
with no effect | N13S

Variants of: B7
Details: with smad9_human SMAD9, O15198
Chain of smad9_human SMAD9, O15198 (O15198 whole entry): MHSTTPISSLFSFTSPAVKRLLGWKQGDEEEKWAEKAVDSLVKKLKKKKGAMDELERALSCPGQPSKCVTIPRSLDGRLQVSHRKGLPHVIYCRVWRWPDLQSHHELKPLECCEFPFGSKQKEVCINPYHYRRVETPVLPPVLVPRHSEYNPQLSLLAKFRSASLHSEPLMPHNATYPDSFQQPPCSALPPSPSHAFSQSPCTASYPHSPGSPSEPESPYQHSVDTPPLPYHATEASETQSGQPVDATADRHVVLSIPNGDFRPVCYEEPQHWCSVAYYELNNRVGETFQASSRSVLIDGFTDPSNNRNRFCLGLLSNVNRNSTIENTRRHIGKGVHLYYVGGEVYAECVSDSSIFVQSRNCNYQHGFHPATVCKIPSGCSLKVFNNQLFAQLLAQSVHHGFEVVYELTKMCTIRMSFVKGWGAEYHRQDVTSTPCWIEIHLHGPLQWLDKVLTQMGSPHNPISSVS

effect of a mutation on the interaction | Variant
disrupting interaction strength | Y353S
with no effect | N13S

Variants of: B7
Details: with smad3_human SMAD3, P84022
Remark: another data set of the same source

effect of a mutation on the interaction | Variant
disrupting interaction strength | L533R
